By stoichiometry N is commonly meant the number of molecules, sites or subunits per partner or assembly.

Experiment [1] has as its target human heparin-binding epidermal growth factor, recombinant heparin-binding and EGF domains (human, UniProt Q99075 63-148). The experiment can be described thus: SEC; Superdex 75 10/300 GL, 25 mM Tris.HCl pH 8.0; 150 mM NaCl, flow rate 0.8 mL/min; oligomeric state read from the elution volume. Particulars: both partners purified.
In experiment [2] the target is human amphiregulin, recombinant heparin-binding and EGF domains (human, UniProt P15514 101-198). The description is as above. Particulars: both partners purified.

B1: human heparin-binding epidermal growth factor, recombinant heparin-binding and EGF domains (ligand)
chain: DLQEADLDLLRVTLSSKPQALATPNKEEHGKRKKKGKGLGKKRDPCLRKYKDFCIHGECKYVKELRAPSCICHPGYHGERCHGLSL
modifications: three disulfides (C1-C3, C2-C4, C5-C6); SEC suggests a dimer; N-terminal pET32a linker remnant omitted / three disulfides (C1-C3, C2-C4, C5-C6); SEC suggests a dimer; N-terminal pET32a linker remnant
As to B1, the “stoichiometry N” value in experiment [1] turned out to be 2.

B2: human amphiregulin, recombinant heparin-binding and EGF domains (ligand)
chain: SVRVEQVVKPPQNKTESENTSDKPKRKKKGGKNGKNRRNRKKKNPCNAEFQNFCIHGECKYIEHLEAVTCKCQQEYFGERCGEKSMKTHSMIDSSLSK
modifications: three disulfides (C1-C3, C2-C4, C5-C6); SEC suggests a dimer; N-terminal pET32a linker remnant omitted / three disulfides (C1-C3, C2-C4, C5-C6); SEC suggests a dimer; N-terminal pET32a linker remnant
Take B2: the “stoichiometry N” value in experiment [2] is 2.

These data come from publication PMC8943033, “A toolkit for recombinant production of seven human EGF family growth factors in active conformation” (Scientific Reports, 2022).
